T1: hOX40-EC-His (human, UniProt P43489 29-214)
T1 construct: extracellular domain; bought protein; also called recombinant human OX40 antigen protein; human OX40 extracellular segment antigen; not shown: 6 His label
T1 sequence (looked up): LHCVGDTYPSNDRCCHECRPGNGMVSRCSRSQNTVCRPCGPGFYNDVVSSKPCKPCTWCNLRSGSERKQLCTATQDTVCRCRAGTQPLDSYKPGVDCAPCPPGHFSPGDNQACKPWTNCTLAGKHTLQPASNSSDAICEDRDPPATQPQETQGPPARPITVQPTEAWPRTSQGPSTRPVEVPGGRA

T2: OX40 on OX40 over-expressed cells (UniProt P43489 29-277)
T2 construct: whole, on cells; human implied; also called OX40 expressed on the surface of OX40 expressing cell
T2 sequence (looked up): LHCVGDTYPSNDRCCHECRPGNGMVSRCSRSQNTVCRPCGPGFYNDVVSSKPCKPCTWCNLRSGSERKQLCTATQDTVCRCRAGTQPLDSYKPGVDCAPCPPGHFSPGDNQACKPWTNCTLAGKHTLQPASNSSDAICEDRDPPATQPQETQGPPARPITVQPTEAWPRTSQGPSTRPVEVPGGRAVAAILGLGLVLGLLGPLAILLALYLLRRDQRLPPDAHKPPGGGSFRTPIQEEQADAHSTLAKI

B1: 29A9-5 (antibody, V domains shown)
VH: QVQLQESGPGLVKPSGTLSLTCAVFGDSISSSYWWSWVRQPPGKGLEWIGEIYHSGSTHYNPSLKSRVTISVDKSKNHLSLKLISVTDADTAVYYCAGEDTGWPFDFWGQGTLVTVSS
VL: not shown
notes: hybridoma antibody, tested as culture supernatant
B2: 28E3-4 (antibody, V domains shown)
VH: QVQLQESGPGLVKPSGTLSLTCAVSGGSISRSNWWTWVRQSPGKGLEWIGEIYHSGNTNYNPSLKSRVTISLDKSKNQFSLKLSSVTAADTAVYYCASSGSLYMDVWGKGTTVTVSS
VL: DIQMTQSPSSLSASVGDRVTISCRASQSTSSYLNWYQQKPGKAPRLLIYGASSLQSGVPSRFSGSGSGTDFILTISSLQPEDFATYYCQQSYSIPITFGQGTRLEIKR
notes: as for B1
B3: 29B8-3 (antibody, V domains shown)
VH: QVQLQESGPGLVKPSGTLSLTCAVSGVSISSSNWWSWVRQPPGKGLEWIGEIYHSGNTNYNPSLKSRVTISVDKSKNQFSLKLSSVTAADTAVYYCAETSTITTNYWGQGTLVTVSS
VL: DIQMTQSPSSLSASVGDRVTITCRASQTISSYLNWYQQKPGKAPKLLIYAASSLQSGVPSRFSGSESGTDFTLTISSLQPEDFATYYCQQTYSIPITFGQGTRLEIKR
notes: as for B1
B4: 4D9-12 (antibody, V domains shown)
VH: QVQLQESGPGLVKPSGTLSLTCAVSGGSISSSNWWSWVRQPPGKGLEWIGEIYHSGNTIYNPSLKSRVTISLDKSKNQFSLKLSSVTAADTAVYYCASSGSLYMDVWGKGTTVTVSS
VL: DIQMTQSPSSLLSSVGDRVTISCRASHGSSTYLNWYQQKPGKAPRLLIYGASSLQSGVPSRFSGSGFGTDFILTISSMQPEDFATYYCQQSYSIPITFGQGTRLEIKR
notes: as for B1
B5: 15A7-6 (antibody, V domains shown)
VH: QVQLQESGPGLVKPSGTLSLTCAVSGGSINSSSWWSWVRQPPGKGLEWIGEIYHSGDTNYNPSLKSRVAISVDKSKNQFSLKLSSVTAADTAVYYCARDQADYFGSGNYVYWGQGTLVTVSS
VL: EIVLMQYPGTLSLSSGERRVLSCRPSQSVSSSYLAWYQQKPGQAPRLLIYGASSRASGIPDRFSGSGSGTDFTLTISRLEPEDFAVYYCQQYGSLPITFGQGTRVEIKR
notes: as for B1
B6: 24F10-1 (antibody, V domains shown)
VH: QVQLQESGPGLVKPSGNLSLTCVVSGASIINNNWWTWVRQSPGKGLEWIGEIFHSGTTNYNPSLKNRVTISVDKAKNQFSLNLKSVTAADTAVYYCVAYVSGTYYNFDYWGQGTLVTVSS
VL: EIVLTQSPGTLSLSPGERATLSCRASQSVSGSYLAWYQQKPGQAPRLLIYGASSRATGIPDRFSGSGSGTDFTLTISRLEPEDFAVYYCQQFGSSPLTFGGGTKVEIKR
notes: as for B1
B7: 24F8-7 (antibody, V domains shown)
VH: QVQLQESGPGLVKPSGTLSLTCAVSGGSISSYNWWSWVRQPPGKGLEWIGEIYHSGSTNYNPSLKSRVTISVDKSKNQFSLKLSSVTAADTAVYYCARDEDYYGSGNYYHWGQGTLVTVSS
VL: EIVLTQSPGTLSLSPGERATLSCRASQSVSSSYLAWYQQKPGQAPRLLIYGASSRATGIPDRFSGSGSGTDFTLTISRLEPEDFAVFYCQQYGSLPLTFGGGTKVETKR
notes: as for B1
B8: 18F11-4 (antibody, V domains shown)
VH: QVQLQESGPGLVKPSGTLSLTCAVSGGSISSYNWWSWVRQPPGKGLEWIGEIYHSGSTNYNPSLKSRVTISVDKSKNQFSLKLSSVTAADTAVYYCARDEDYYGSGNYYHWGQGTLVTVSS
VL: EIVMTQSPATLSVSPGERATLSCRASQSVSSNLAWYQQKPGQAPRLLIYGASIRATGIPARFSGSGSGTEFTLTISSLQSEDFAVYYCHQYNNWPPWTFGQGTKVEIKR
notes: as for B1
B9: 21F9-12 (antibody, V domains shown)
VH: QVQLQESGPGLVKPSGTLSLTCAVSGGSISSYNWWSWVRQPPGKGLEWIGEIYHSGNTNYNPSLKSRVTISVDKSKNQFSLKLSSVTAADTAMYYCARDQDYYGSGNFYYWGQGTLVTVSS
VL: not shown
notes: as for B1
B10: 24E10-4 (antibody, V domains shown)
VH: QVQMQESGPGLVKPSGTLSLTCAVSGGSISSSKWWSWVRQPPGKGLEWIGEIYHSGSTNYNPSLKSRVTISIDKSKNQFSLRLTSVTAADTAVYYCARGDVLLWFGGQGTLVTVSS
VL: EIVLTQSPGTLSLSPGERATLSCWASQSVSSTYLAWYQQKPGQAPRLLIYGASIRATGIPDRFSGSGSGTDFTLTISSLEPEDFAVYYCQQYGSSPITFGQGTRLEIKR
notes: as for B1
B11: 26C3-4 (antibody, V domains shown)
VH: QVQLQESGPGLVKPSGTLSLTCDVSGGSISSSNWWSWVRQPPGKGLEWIGEIYHSGSTNYNPSLKSRVTISVDKSKNQVSLKLNSVTAADTAVYYCARGDILLWFGGQGTLVTVSS
VL: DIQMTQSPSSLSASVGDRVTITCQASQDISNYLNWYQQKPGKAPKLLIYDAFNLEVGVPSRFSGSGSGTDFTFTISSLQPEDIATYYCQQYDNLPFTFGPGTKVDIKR
notes: as for B1
B12: 17D5-11 (antibody, V domains shown)
VH: QVQLQESGPGLVKPSETLSLTCAVSGGSINSTNWWSWVRQPPGKGLEWIGEIYHSGSTNYNPSLKSRVTISVDKSKNQFSLKLSSVTAADTAVYYCARGGAVALDYWGQGTLVTVSS
VL: EIVLTQSPGPLSLSPGDRATLSCRASQTVSSSYLAWYLQKPGQAPRLLIYGASIRATGIPDRFSGSGSGTDFTLTISRLEPEDFAVYYCQQYGNSPITFGQGTRLEIKR
notes: as for B1
B13: 18F5-2 (antibody, V domains shown)
VH: QVQMQESGPGLVKPSGTLSLICAVSGGSISSSKWWSWVRQPPGKGLEWIGEIYHSGSTNYNPSLKSRVTISIDKSKNQFSLRLTSVTAADTAVYYCARGDVLLWFGGQGTLVTVSS
VL: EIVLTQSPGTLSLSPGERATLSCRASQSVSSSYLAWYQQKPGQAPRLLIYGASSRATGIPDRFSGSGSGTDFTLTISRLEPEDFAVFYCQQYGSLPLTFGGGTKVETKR
notes: as for B1
B14: 21F3-11 (antibody, V domains shown)
VH: QVQLQESGPGLVKPSGTLSLTCAVSGGSISSSNWWSWVRQPPGKGLEWIGEIYHGGSTNYNPSLKSRITISVDKSKNQFSLKLSSVTAADTAMYYCATLPGYSSGWFDSWGQGTLVTVSS
VL: EIVLMQSPGTLSLSPGERATLSCRASQSVSSSYLAWYQQKPGQAPSLLIYGASNRASGIPDRFSGSGSGTDFTLTITRLEPEDFAVYYCQQYGSSPLTFGGGTRVEIKR
notes: as for B1
B15: 20D2-12 (antibody, V domains shown)
VH: QVQLVESGGGLVKPGGSLRLSCAASGFTFSDYYMSWIRQAPGRGLEWISYISGSDSTIYYEDSVMGRFTISRDNAKNSLYLQMNSLRAEDTAVYYCARDRDVYGYSGYGYFDYWGQGTLVTVSS
VL: EIVLTQSPGTLSLSPGERATLSCRASQSVSSRYLAWYQQKPGQAPRLLIYGASNRATGMPDRFSGSGSGTDFTLTISRLEPEDFAVYYCQQYGSSPITFGQGTRLEIKR
notes: as for B1
B16: 24A12-12 (antibody, V domains shown)
VH: QVQLQESGPGLVKPAGTLSLTCAVSGGSISSSNWWNWVRQPPGKGLEWIGEIYHSGSTNYNPSLKSRVTISVDTSKNQFSLKLTSVTAADTAVYYCARTGPTVTTDYWGQGTLVTVSS
VL: EIVLTQSPGTLSLSPGERATLSCRASQSVSSSYLAWYQQKPGQAPRLLIYGASYRATGMPERFSGSGSGTDFTLTISRLEPEDFAIYYCQQYGRSPLTFGGGTKVEIKR
notes: as for B1
B17: 48D10-5 (antibody, V domains shown)
VH: QVQLVQSGAEVKKPGASMKVSCKASGYTFANFGINWVRQAPGQGLEWMGWISAYNGYTNYAQQFQGRITMTTDTSTSTAYMELRSLRSDDTAIYYCVIWFGELLSFDYWGQGTLVTVSS
VL: DIQMTQFPSSLSASVGDRVTITCRASQDISNYLAWFQQKPGKAPKSLIYAASSLQSGVPSKFSGNGFGTDFTFPLSRMQPEDFASSYCQQYNNYTFTFGRGTKVEIKR
notes: as for B1

Legend:
[1] = biological target: T1, hOX40-EC-His; assay: ELISA, supernatant diluted 100 times, coated OX40 (CK60)
[2] = biological target: T2, OX40 on OX40 over-expressed cells; assay: flow cytometry, supernatant on OX40 over-expressed cells
Method: After collecting OX40 over-expressed cells by 200G centrifugation, wash them with PBS containing 3% FCS, and then resuspend them in 2.5 ml of PBS containing 3% FCS. […] Finally, the cells were resuspended in […] of PBS containing 3% FCS for detection by flow cytometry.

[3] = biological target: T1, hOX40-EC-His; assay: ELISA, supernatant stoste, coated OX40 (CK60)
[4] = biological target: T1, hOX40-EC-His; assay: ELISA, supernatant 1:100, coated hOX40-EC-His

Binder | 450 nm light absorption [1] | Y586 channel PE fluorescence value [2] | 450 nm light absorption [3] | IgG ELISA (1:100) [4]
B1 | 0.878 OD450 | 221000 | 1.93 OD450 | 
B2 | 2.26 OD450 | 195000 | 2.27 OD450 | 2.1 OD650
B3 | 2.36 OD450 | 388000 | 2.46 OD450 | 
B4 | 1.26 OD450 | 187000 | 2.39 OD450 | 2.3 OD650
B5 | 1.4 OD450 | 181000 | 2.25 OD450 | 
B6 | 2.2 OD450 | 274000 | 2.41 OD450 | 
B7 | 2.14 OD450 | 437000 | 2.4 OD450 | 
B8 | 1.32 OD450 | 402000 | 1.87 OD450 | 
B9 | 2 OD450 | 424000 | 2.37 OD450 | 
B10 | 2.4 OD450 | 344000 | 2.51 OD450 | 
B11 | 1.91 OD450 | 416000 | 2.32 OD450 | 
B12 | 2.32 OD450 | 475000 | 2.46 OD450 | 
B13 | 2.2 OD450 | 432000 | 2.35 OD450 | 
B14 | 2.61 OD450 | 171000 | 2.58 OD450 | 1.9 OD650
B15 | 2.32 OD450 | 540000 | 3.81 OD450 | 
B16 | 2.8 OD450 | 343000 | 2.81 OD450 | 
B17 | 2.35 OD450 | 358000 | 2.45 OD450 | 
